Reference: US20160369001A1 (JCR PHARMACEUTICALS, published 2016)

B1: mouse single-chain anti-hTfR antibody of Clone M23 (maltose binding protein fusion, E. coli lysate supernatant) (scFv, not shown: large carriers)
scFv: DYKDIVITQSHKFMSTSVGDRVSITCKASQDVSTAVAWYQQKPGQSPKLLIYSASYRYTGVPDRFTGSGSGTDFTFTISSVQAEDLAVYYCQQHYSTPYTFGGGTKLEIKRGGGGSGGGGSGGGGSGGGGSQVQLQQSGAELVRPGASVTLSCKASGYTFTDYEMHWVKQTPVHGLEWIGAIDPETGGTAYNQKFKGKATLTADKSSSTAYMELRSLTSEDSAVYYCTGWGFDYWGQGTTLTVSS
notes: Tested in the screening ELISA as an MBP fusion in crude E. coli lysate supernatant and detected with an HRP-labelled anti-MBP antibody
B2: mouse single-chain anti-hTfR antibody of Clone M27 (maltose binding protein fusion, E. coli lysate supernatant) (scFv, not shown: large carriers)
scFv: DYKDIVMTQSHKFMSTSVGDRVSITCKASQDVGTAVAWYQQKPGQSPKLLIYWASTRHTGVPDRFTGSGSGTDFTLTISNVQSEDLADYFCQQYSSYPYTFGGGTKLEIKRGGGGSGGGGSGGGGSGGGGSQVQLQQPGSELVRPGASVKLSCKASGYTFTSYWMHWVKQRPGQGLEWIGNIYPGSGSTNYDEKFKSKATLTVDTSSSTAYMQLSSLTSEDSAVYYCTRGATALDYWGQGTTLTVSS
notes: Tested in the screening ELISA as an MBP fusion in crude E. coli lysate supernatant; also called Clone 27
B3: mouse single-chain anti-hTfR antibody of Clone M11 (maltose binding protein fusion, E. coli lysate supernatant) (scFv, not shown: large carriers)
scFv: DYKDIVMTQSHKFMSTSVGDRVSITCKASQDVGTAVAWYQQKPGQSPKLLIYWASTRHTGVPDRFTGSGSGTDFTLTISNVQSEDLADYFCQQYSSYLTFGAGTKLELKRGGGGSGGGGSGGGGSGGGGSEVMLVESGGDLVKPGGSLKLSCAASGFTFSSYGMSWVRQTPDKRLEWVATISSGGSYTYYPDSVKGRFTISRDNAKNTLYLQMSSLKSEDTAMYYCALLRSDWYFDVWGAGTTVTVSS
notes: Tested in the screening ELISA as an MBP fusion in crude E. coli lysate supernatant and detected with an HRP-labelled anti-MBP antibody; The scFv is light chain, linker, heavy chain

The binders below were run against T1, recombinant human TfR (rhTfR) (Sino Biological) (human, UniProt P02786 89-760) (assay: ELISA, rhTfR coated on plate, MBP-scFv lysate supernatant, HRP-labelled anti-MBP detection, A450).
T1 construct: Bought protein, coated on 96-well plates at 5 ug/mL; also called human transferrin receptor
Method: E. coli (JM109) was transformed respectively with the mouse and human single-chain anti-hTfR antibody cDNA libraries, and then disseminated on LB plates containing ampicillin (Amp), and cultured overnight at 37° C. On the following day, the colonies formed on the plates were collected one by one, with which Overnight Express™ Instant LB Medium (Novagen), which had been dispensed beforehand to 96-well plates, was inoculated. After the plates were shaken overnight at 37° C., a tenth amount of Popculture Reagent (Novagen) was added to lyse the cells, and following addition of an equal amount of TBS-T, the resulting mixture was centrifuged to collect the supernatant. This supernatant was used as a sample solution.
To each well of the 96-well plates was added 5 μg/mL of recombinant human TfR (rhTfR) (Sino Biological) or 50 μL of bovine gamma globulin (Bio-Rad, Inc.), and the plates were left undisturbed at 4° C. overnight. After removal of the solution, each well was washed once with 300 μL of TBS-T. Then, to each well was added 300 μL of 1% BSA solution, and the plates were left undisturbed for 30 minutes at room temperature. After removal of the solution, 100 μL of the above sample solution was added to each well, and the plates were left undisturbed for two hours at room temperature. After removal of the solution, each well was washed three times with 300 μL of TBS-T, and 50 μL of HRP-labelled anti MBP antibody (Novagen) was added, and the plates were left undisturbed for one hour at room temperature. After removal of the solution, each well was washed three times with 300 μL of TBS-T, then 50 μL of POD substrate solution (Nacalai Tesque, Inc.) was added, and a reaction was allowed to proceed for 10-15 minutes at room temperature. […] Three clones, M11, M23 and M27 were obtained as high affinity clones to rhTfR from the mouse single-chain anti-hTfR antibody cDNA library. A clone (B84) was obtained as a high affinity clone to rhTfR from the human single-chain anti-hTfR antibody cDNA library.

T1 sequence (P02786 89-760 limits assumed): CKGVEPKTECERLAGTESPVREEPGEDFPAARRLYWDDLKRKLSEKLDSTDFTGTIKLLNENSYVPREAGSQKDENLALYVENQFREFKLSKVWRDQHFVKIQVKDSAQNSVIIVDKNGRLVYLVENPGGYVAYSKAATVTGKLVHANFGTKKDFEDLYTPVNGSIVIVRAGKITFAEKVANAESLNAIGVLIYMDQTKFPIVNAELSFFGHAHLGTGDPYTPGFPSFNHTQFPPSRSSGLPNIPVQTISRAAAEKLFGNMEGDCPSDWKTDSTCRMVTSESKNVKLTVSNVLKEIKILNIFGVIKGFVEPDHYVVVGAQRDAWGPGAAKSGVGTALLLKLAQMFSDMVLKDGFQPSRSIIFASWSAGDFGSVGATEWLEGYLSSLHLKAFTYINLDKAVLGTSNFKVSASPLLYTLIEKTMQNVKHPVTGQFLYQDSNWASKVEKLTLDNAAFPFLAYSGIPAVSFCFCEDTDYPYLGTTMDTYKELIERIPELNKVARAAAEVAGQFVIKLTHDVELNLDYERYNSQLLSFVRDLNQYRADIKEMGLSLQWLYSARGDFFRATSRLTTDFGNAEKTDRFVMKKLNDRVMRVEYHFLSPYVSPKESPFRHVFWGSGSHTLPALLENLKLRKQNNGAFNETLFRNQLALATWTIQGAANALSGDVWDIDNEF

Binding result, binds:
B1
B2
B3
